Article PMC3090699 (Amino acids, 2010)

Biological target: the molecule itself
Test: SEC

B1: methionine adenosyltransferase from Methanococcus jannaschii, wild type (enzyme, UniProt Q58605 1-406, looked up)
chain: MRNIIVKKLDVEPIEERPTEIVERKGLGHPDSICDGIAESVSRALCKMYMEKFGTILHHNTDQVELVGGHAYPKFGGGVMVSPIYILLSGRATMEILDKEKNEVIKLPVGTTAVKAAKEYLKKVLRNVDVDKDVIIDCRIGQGSMDLVDVFERQKNEVPLANDTSFGVGYAPLSTTERLVLETERFLNSDELKNEIPAVGEDIKVMGLREGKKITLTIAMAVVDRYVKNIEEYKEVIEKVRKKVEDLAKKIADGYEVEIHINTADDYERESVYLTVTGTSAEMGDDGSVGRGNRVNGLITPFRPMSMEAASGKNPVNHVGKIYNILANLIANDIAKLEGVKECYVRILSQIGKPINEPKALDIEIITEDSYDIKDIEPKAKEIANKWLDNIMEVQKMIVEGKVTTF
  stoichiometry N: 2
